Results reported in the supplement of paper PMC9233669.
Variants at the floor of the assay were thinned out.

What was measured:
biotinyl-Val-oxazolone = assay: self-aminoacylation, catalytic enhancement (BVO) (fold over background); higher = more active; k-Seq, kA / k0A0; sequences stand for … in GGGAAUGGAUCCACAUCUACGAAUUC…UUCACUGCAGACUUGACGAAGCUG
Procedure, shortened: (§1)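 Mutagenized RNA pools with a 21-nt variable region (0.43 μM) reacted with each biotinyl-aminoacyl-oxazolone at 2–1250 μM. Reactions ran in 50 μL HEPES/NaCl/KCl/MgCl2/CaCl2 buffer with 5% acetonitrile, pH 6.9–7.0, for 90 minutes at room temperature. Streptavidin-captured RNA was quantified by triplicate qPCR and Illumina sequencing, and per-sequence fraction reacted was fit to a pseudo-first-order model with 1000 bootstraps. Catalytic enhancement is median kA divided by the uncatalyzed rate, the low-activity peak of a bimodal Gaussian fit.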

biotinyl-Trp-oxazolone = assay: self-aminoacylation, catalytic enhancement (BWO) (fold over background); higher = more active; k-Seq, kA / k0A0; sequences stand for … in GGGAAUGGAUCCACAUCUACGAAUUC…UUCACUGCAGACUUGACGAAGCUG
Procedure, shortened: as §1

biotinyl-Leu-oxazolone = assay: self-aminoacylation, catalytic enhancement (BLO) (fold over background); higher = more active; k-Seq, kA / k0A0; sequences stand for … in GGGAAUGGAUCCACAUCUACGAAUUC…UUCACUGCAGACUUGACGAAGCUG
Procedure, shortened: as §1

biotinyl-Phe-oxazolone = assay: self-aminoacylation, catalytic enhancement (BFO) (fold over background); higher = more active; k-Seq, kA / k0A0; sequences stand for … in GGGAAUGGAUCCACAUCUACGAAUUC…UUCACUGCAGACUUGACGAAGCUG
Procedure, shortened: as §1

biotinyl-Ile-oxazolone = assay: self-aminoacylation, catalytic enhancement (BIO) (fold over background); higher = more active; k-Seq, kA / k0A0; sequences stand for … in GGGAAUGGAUCCACAUCUACGAAUUC…UUCACUGCAGACUUGACGAAGCUG
Procedure, shortened: as §1

biotinyl-Met-oxazolone = assay: self-aminoacylation, catalytic enhancement (BMO) (fold over background); higher = more active; k-Seq, kA / k0A0; sequences stand for … in GGGAAUGGAUCCACAUCUACGAAUUC…UUCACUGCAGACUUGACGAAGCUG
Procedure, shortened: as §1

Row | Sequence | self-aminoacylation (biotinyl-Val-oxazolone) | self-aminoacylation (biotinyl-Trp-oxazolone) | self-aminoacylation (biotinyl-Leu-oxazolone) | self-aminoacylation (biotinyl-Phe-oxazolone) | self-aminoacylation (biotinyl-Ile-oxazolone) | self-aminoacylation (biotinyl-Met-oxazolone)
1 | AAAACCCUGGUCAUCGAGUGA [Fam2.1 aminoacylation ribozyme variant] | 26.3 | 73.3 | 65.1 | 462 | 26.8 | 66.9
2 | AAACACCUAGGUCAUCGGGUG [Fam2.2 aminoacylation ribozyme variant] | 3.09 | 4.7 | 3.04 | 23.9 | 3.41 | 2.46
3 | AAACUUGCUAAUAGUCGCAAG [Fam3.1 aminoacylation ribozyme variant] | 1.97 | 4.6 | 1.29 | 2.21 | 2.62 | 1.76
4 | AAAUGUGCUAAUAGUCGCAAG [Fam3.1 aminoacylation ribozyme variant] | 1.46 | 1.48 | 1.53 | 2.84 | 2.12 | 2.16
5 | AAAUUGGCUAAUAGUCGCAAG [Fam3.1 aminoacylation ribozyme variant] | 2.05 | 3.11 | 2.05 | 2.72 | 2.32 | 1.84
6 | AAAUUUGCUAAUAGUCGCAAA [Fam3.1 aminoacylation ribozyme variant] | 2.41 | 3.82 | 3.17 | 2.95 | 3.32 | 3.08
7 | AAAUUUGCUAAUAGUCGCAGG [Fam3.1 aminoacylation ribozyme variant] | 1.79 | 3.16 | 2.47 | 2.3 | 1.97 | 2.11
8 | AAAUUUGUUAAUAGUCGCAAG [Fam3.1 aminoacylation ribozyme variant] | 1.59 | 1.76 | 1.99 | 2.69 | 2.11 | 2.04
9 | AACUUUGCUAAUAAUCGCAAG [Fam3.1 aminoacylation ribozyme variant] | 1.96 | 2.71 | 2.04 | 3.06 | 1.93 | 1.96
10 | AACUUUGCUAAUAGGCGCAAG [Fam3.1 aminoacylation ribozyme variant] | 2.05 | 1.96 | 1.79 | 3.02 | 2.36 | 1.7
11 | AACUUUGCUAAUAGUGGCAAG [Fam3.1 aminoacylation ribozyme variant] | 0.919 | 1.11 | 1.44 | 1.37 | 1.07 | 0.764
12 | AACUUUGCUAAUAUUCGCAAG [Fam3.1 aminoacylation ribozyme variant] | 1.65 | 1.75 | 1.94 | 1.42 | 1.76 | 1.51
13 | AAGAUUGCUAAUAGUCGCAAU [Fam3.1 aminoacylation ribozyme variant] | 1.41 | 1.14 | 1.37 | 2.37 | 1.54 | 1.85
14 | AAGAUUGCUAAUAGUCGCGAG [Fam3.1 aminoacylation ribozyme variant] | 1.44 | 1.1 | 1.1 | 1.27 | 1.3 | 1.94
15 | AAGAUUGCUAAUAUUCGCAAG [Fam3.1 aminoacylation ribozyme variant] | 1.5 | 2.51 | 1.58 | 1.44 | 2.02 | 1.42
16 | AAGAUUGCUAAUGGUCGCAAG [Fam3.1 aminoacylation ribozyme variant] | 1.14 | 1.06 | 1.07 | 1.11 | 1.21 | 1.51
17 | AAGAUUGCUAGUAGUCGCAAG [Fam3.1 aminoacylation ribozyme variant] | 1.61 | 1.48 | 1.89 | 1.28 | 1.36 | 1.83
18 | AAGAUUGCUCAUAGUCGCAAG [Fam3.1 aminoacylation ribozyme variant] | 1.62 | 2.09 | 1.95 | 1.91 | 1.45 | 1.56
19 | AAGCUUGCGAAUAGUCGCAAG [Fam3.1 aminoacylation ribozyme variant] | 1.64 | 2.32 | 2.2 | 2.7 | 2.39 | 2.12
20 | AAGCUUGCUAAUACUCGCAAG [Fam3.1 aminoacylation ribozyme variant] | 1.26 | 1.98 | 0.856 | 1.31 | 1.5 | 0.693
21 | AAGCUUGCUAAUAGUAGCAAG [Fam3.1 aminoacylation ribozyme variant] | 1.3 | 2.48 | 1.55 | 2.27 | 1.39 | 1.08
22 | AAGCUUGCUAAUAGUCGCACG [Fam3.1 aminoacylation ribozyme variant] | 1.76 | 1.33 | 1.6 | 4.41 | 1.81 | 1.29
23 | AAGCUUGCUAAUAGUCGCGAG [Fam3.1 aminoacylation ribozyme variant] | 1.9 | 3.85 | 2.66 | 26.9 | 2.66 | 3.36
24 | AAGCUUGCUAAUAGUCGGAAG [Fam3.1 aminoacylation ribozyme variant] | 1.3 | 1.65 | 1.21 | 3.45 | 1.48 | 1.34
25 | AAGCUUGCUAAUGGUCGCAAG [Fam3.1 aminoacylation ribozyme variant] | 1.76 | 3.95 | 1.83 | 2.3 | 1.77 | 2.83
26 | AAGCUUGCUACUAGUCGCAAG [Fam3.1 aminoacylation ribozyme variant] |  | 2.23 | 2.03 |  | 2.45 | 2.37
27 | AAGCUUGCUGAUAGUCGCAAG [Fam3.1 aminoacylation ribozyme variant] | 2.45 | 3.03 |  | 4.23 | 2.19 | 2.4

Row | Sequence | self-aminoacylation (biotinyl-Val-oxazolone) | self-aminoacylation (biotinyl-Trp-oxazolone) | self-aminoacylation (biotinyl-Leu-oxazolone) | self-aminoacylation (biotinyl-Phe-oxazolone) | self-aminoacylation (biotinyl-Ile-oxazolone) | self-aminoacylation (biotinyl-Met-oxazolone)
28 | AAGCUUUCUAAUAGUCGCAAG [Fam3.1 aminoacylation ribozyme variant] | 1.71 | 1.93 | 1.81 | 3.08 | 2.02 | 1.44
29 | AAGGCUGCUAAUAGUCGCAAG [Fam3.1 aminoacylation ribozyme variant] | 1.38 | 7.19 | 1.64 | 20 | 1.73 | 2.04
30 | AAGGUGGCUAAUAGUCGCAAG [Fam3.1 aminoacylation ribozyme variant] | 1.41 | 1.95 | 1.74 | 1.82 | 1.63 | 1.65
31 | AAGGUUGCUAAAAGUCGCAAG [Fam3.1 aminoacylation ribozyme variant] | 1.67 | 1.93 | 1.6 | 4.28 | 1.62 | 1.52
32 | AAGGUUGCUAACAGUCGCAAG [Fam3.1 aminoacylation ribozyme variant] | 1.11 | 1.65 | 1.83 | 3.97 | 1.33 | 1.06
33 | AAGGUUGCUAAUAGUCACAAG [Fam3.1 aminoacylation ribozyme variant] | 1.32 | 1.72 | 1.57 | 4.71 | 1.71 | 1.72
34 | AAGUAAGCUAAUAGUCGCAAG [Fam3.1 aminoacylation ribozyme variant] | 1.33 | 1.5 | 1.43 | 2.82 | 1.55 | 1.18
35 | AAGUAUGCGAAUAGUCGCAAG [Fam3.1 aminoacylation ribozyme variant] | 1 | 0.948 | 1.19 | 1.74 | 1.32 | 1.13
36 | ACGCUUGCUAAUAGUCGCAAG [Fam3.1 aminoacylation ribozyme variant] |  | 2.88 |  | 5.67 | 2.28 | 2.29
37 | AUUAACCUGGUCCUCGAGUGA [Fam2.1 aminoacylation ribozyme variant] |  | 4.11 | 4.42 | 19.7 | 2.3 | 3.92
38 | AUUACACUCGUCAUCGAGUGA [Fam2.1 aminoacylation ribozyme variant] |  | 4.43 | 3.87 | 18 | 2.13 | 3.51
39 | AUUACCCUGGUCAUCGCUUGA [Fam2.1 aminoacylation ribozyme variant] |  | 3.08 |  | 10.7 | 2.09 | 2.25
40 | AUUCACAUAGGUCAUCUGGUG [Fam2.2 aminoacylation ribozyme variant] |  | 3.03 | 3.86 | 15.7 | 2.1 | 2.89
41 | AUUCACCUAAGUCAUUGGGUG [Fam2.2 aminoacylation ribozyme variant] |  | 2.6 | 3.65 | 20.5 | 2.31 | 3.48
42 | AUUCACCUAGGUCAUCGAGUU [Fam2.2 aminoacylation ribozyme variant] | 2.25 |  | 4.79 | 7.47 | 2.69 | 3.3
43 | AUUCACCUAGGUCUUCGGGGG [Fam2.2 aminoacylation ribozyme variant] | 3.04 |  | 3.62 | 12 | 3.04 | 2.43
44 | AUUCACCUGGGUCAUCGGGCG [Fam2.2 aminoacylation ribozyme variant] | 4.75 | 2.91 | 5.26 |  | 3.58 | 4.48
45 | AUUCACUUAGGUCAUCGGGUA [Fam2.2 aminoacylation ribozyme variant] | 2.15 |  |  |  | 2.29 | 2.38
46 | AUUUACCUAGUUCAUCGGGUG [Fam2.2 aminoacylation ribozyme variant] |  | 2.25 | 3.25 | 15.2 | 2.13 | 2.61
47 | CAACACUUCAAGCAAUCGGGC [Fam1B.1 aminoacylation ribozyme variant] | 2.23 |  | 2.2 | 4.52 | 2.15 | 2.2
48 | CAGUUUGCUAAUAGUCGCGAG [Fam3.1 aminoacylation ribozyme variant] | 2.01 | 3.86 | 3.12 | 12.2 | 2.33 | 
49 | CCACACCUCAAGCAAUCGCUC [Fam1B.1 aminoacylation ribozyme variant] |  | 3.13 | 2.72 | 9.63 | 2.12 | 2.85
50 | CCACACUUCAUGCAAUCGGCC [Fam1B.1 aminoacylation ribozyme variant] | 2.8 |  | 2.72 | 14.2 | 2.44 | 2.9
51 | CCACCCUUCAAGCAAUCGGGC [Fam1B.1 aminoacylation ribozyme variant] | 3.02 | 2.65 |  | 15.4 | 2.06 | 
52 | CUACUUCAAACACUCGGGCUG [Fam1A.1 aminoacylation ribozyme variant] | 2.2 |  | 2.06 |  | 2.18 | 
53 | GCACACUUCAAGCAACCGGUC [Fam1B.1 aminoacylation ribozyme variant] | 2.43 | 4.35 | 2.46 | 2.92 | 2.31 | 
